Data on 2 molecules can be found in patent publication US20140079638A1 (RAMOT AT TEL AVIV UNIVERSITY, published 2014).

No end group written: not given here.

The assay has as its target αvβ3 integrin receptor on human umbilical vein endothelial cells (HUVEC) (human, UniProt P06756 31-1048; P05106 27-788). Kind of assay: cell-based or functional assay.

αvβ3 integrin receptor on human umbilical vein endothelial cells (HUVEC), sequence (P06756 31-1048, chain 1 of 2): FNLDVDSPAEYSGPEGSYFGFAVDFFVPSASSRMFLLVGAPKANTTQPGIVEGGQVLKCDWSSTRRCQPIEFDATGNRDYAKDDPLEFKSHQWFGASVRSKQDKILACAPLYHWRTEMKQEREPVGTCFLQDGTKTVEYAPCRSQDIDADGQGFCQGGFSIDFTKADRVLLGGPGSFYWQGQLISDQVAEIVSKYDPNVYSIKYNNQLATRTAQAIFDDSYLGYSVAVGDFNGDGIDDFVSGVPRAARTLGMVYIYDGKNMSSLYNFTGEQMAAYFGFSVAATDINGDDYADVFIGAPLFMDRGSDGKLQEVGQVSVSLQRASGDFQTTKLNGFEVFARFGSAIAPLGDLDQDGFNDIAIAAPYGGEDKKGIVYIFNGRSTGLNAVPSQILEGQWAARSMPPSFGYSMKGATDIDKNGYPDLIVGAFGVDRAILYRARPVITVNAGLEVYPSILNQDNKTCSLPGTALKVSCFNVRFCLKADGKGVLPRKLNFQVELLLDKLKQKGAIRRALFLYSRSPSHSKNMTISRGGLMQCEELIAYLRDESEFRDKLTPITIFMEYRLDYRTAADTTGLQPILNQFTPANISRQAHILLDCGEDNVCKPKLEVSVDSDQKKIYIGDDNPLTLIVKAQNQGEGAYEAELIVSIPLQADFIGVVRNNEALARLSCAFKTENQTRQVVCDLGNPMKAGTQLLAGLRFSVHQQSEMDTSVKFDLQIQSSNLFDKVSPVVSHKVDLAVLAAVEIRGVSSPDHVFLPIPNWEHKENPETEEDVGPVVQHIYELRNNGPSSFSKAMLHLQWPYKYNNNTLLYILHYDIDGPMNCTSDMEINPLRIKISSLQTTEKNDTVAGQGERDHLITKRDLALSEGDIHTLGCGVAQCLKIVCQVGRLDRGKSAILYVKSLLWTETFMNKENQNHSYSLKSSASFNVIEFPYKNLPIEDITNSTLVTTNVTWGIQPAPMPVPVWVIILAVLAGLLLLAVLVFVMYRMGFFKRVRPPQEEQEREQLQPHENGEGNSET
αvβ3 integrin receptor on human umbilical vein endothelial cells (HUVEC), sequence (P05106 27-788, chain 2 of 2): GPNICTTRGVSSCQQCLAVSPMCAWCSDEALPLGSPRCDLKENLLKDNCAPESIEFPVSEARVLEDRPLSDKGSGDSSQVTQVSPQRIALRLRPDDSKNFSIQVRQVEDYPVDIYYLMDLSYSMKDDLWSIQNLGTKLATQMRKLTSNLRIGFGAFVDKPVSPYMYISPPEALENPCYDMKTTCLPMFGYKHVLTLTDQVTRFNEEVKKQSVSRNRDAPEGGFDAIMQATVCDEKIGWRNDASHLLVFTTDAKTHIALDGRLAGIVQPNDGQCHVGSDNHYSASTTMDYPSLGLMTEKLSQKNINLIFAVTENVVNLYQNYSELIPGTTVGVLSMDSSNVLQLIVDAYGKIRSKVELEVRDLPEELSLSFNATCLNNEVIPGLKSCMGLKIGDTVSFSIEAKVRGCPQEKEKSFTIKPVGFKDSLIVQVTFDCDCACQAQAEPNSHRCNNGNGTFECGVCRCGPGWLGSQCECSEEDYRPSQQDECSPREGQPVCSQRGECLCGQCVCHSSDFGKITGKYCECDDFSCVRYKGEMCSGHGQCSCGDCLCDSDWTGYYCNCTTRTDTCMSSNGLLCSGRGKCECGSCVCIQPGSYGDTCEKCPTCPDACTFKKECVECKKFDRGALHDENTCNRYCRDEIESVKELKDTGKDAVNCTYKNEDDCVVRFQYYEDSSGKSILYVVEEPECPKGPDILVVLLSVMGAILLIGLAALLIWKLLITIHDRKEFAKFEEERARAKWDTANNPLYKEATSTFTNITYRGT

B1: PGA-Paclitaxel-E-[c(RGDfk)2] conjugate (SEQ ID NO:18) having a 5.5 mol % PTX and 3.9 mol % E-[c(RGDfk)2] loading (peptide)
peptide: RGDFKERGDFK
modifications: not fully specified (residues 4, 5, 10, 11, bridges); also: two cyclic RGDfk rings joined through Glu spacer, paclitaxel ester-linked to PGA, 5.5 mol %
Consider B1, for which the “inhibition of HUVEC adhesion to fibrinogen” value is roughly 60%.

B2: PGA-Paclitaxel-E-[c(RGDfk)2] conjugate (SEQ ID NO:18) having a 2.6 mol % PTX and 5 mol % E-[c(RGDfk)2] loading (peptide)
peptide: RGDFKERGDFK
modifications: not fully specified (residues 4, 5, 10, 11, bridges); also: two cyclic RGDfk rings joined through Glu spacer, paclitaxel ester-linked to PGA, 2.6 mol %
For the molecule B2, the “inhibition of HUVEC adhesion to fibrinogen” value was roughly 60%.
